# Results from patent US20190292221A1 (published 2019).
# Key:
# [1] = molecular target: T1, Human EGFR-his (human, UniProt P00533 25-645); test: SPR, BEAT®3 captured on Protein G chip, EGFR-his injected; sample after high pH, 24 h
# T1 construct: Soluble his-tagged antigen injected over captured BEAT®3; also called hsEGFR; not shown: his tag
# [2] = molecular target: T1, Human EGFR-his; test: SPR, BEAT®3 captured on Protein G chip, EGFR-his injected; sample after high pH, 0 h
# [3] = molecular target: T1, Human EGFR-his; test: SPR, BEAT®3 captured on Protein G chip, EGFR-his injected; sample after high pH, 2 h
# [4] = molecular target: T1, Human EGFR-his; test: SPR, BEAT®3 captured on Protein G chip, EGFR-his injected; sample after high pH, 4 h
# [5] = molecular target: T1, Human EGFR-his; test: SPR, BEAT®3 captured on Protein G chip, EGFR-his injected; average of 4 replicates of Reference #1 and #2
# Protocol: The second assay, aims to determine the binding affinity to Human EGFR-his antigen. It was performed with a Serie S Sensor Chip Protein G (GE Healthcare).
binder,measurement,setting,value
"BEAT®3 (bispecific antibody, human IgG1, kappa, L234A L235A, also called third BEAT antibody) chain 1: EVQLVESGGGLVQPGGSLRLSCAASGFTFNTYAMNWVRQAPGKGLEWVARIRSKYNNYATYYADSVKSRFTISRDDSKNTLYLQMNSLRAEDTAVYYCVRHGNFGNSYVSYFAYWGQGTTVTVSSGGGGSGGGGSGGGGSEIVVTQSPATLSVSPGERATLSCRSSTGAVTESNYANWVQEKPGQAFRGLIGGANKRAPGVPARFSGSLSGDEATLTISSLQSEDFAVYYCALFYSNTWVFGQGTKLEIKGGGGTQVQLQESGPGLVKPSETLSLTCTVSGGSVSSGDYYWTWIRQSPGKGLEWIGHIYYSGNTNYNPSLKSRLTISIDTSKTQFSLKLSSVTAADTAIYYCVRDRVTGAFDIWGQGTMVTVSSASTKGPSVFPLAPSSKSTSGGTAALGCLVKDYFPEPVTVSWNSGALTSGVHTFPAVLQSSGLYSLSSVVTVPSSSLGTQTYICNVNHKPSNTKVDKKVEPKSCDKTHTCPPCPAPEAAGGPSVFLFPPKPKDTLMISRTPEVTCVVVDVSHEDPEVQFKWYVDGVEVHNAKTKPREEQYNSTFRVVSVLTVLHQDWLNGKEYKCKVSNKALPAPIEKTISKTKGQPREPAVYTLPPSREEMTKNQVKLVCLVTGFYPSDIAVEWESSGQPENNYYTTPPMLDSDGSFSLVSWLNVDKSRWQQGNIFSCSVMHEALHNRFTQKSLSLSPG chain 2: not shown chain 3: DKTHTCPPCPAPEAAGGPSVFLFPPKPKDTLMISRTPEVTCVVVDVSHEDPEVKFNWYVDGVEVHNAKTKPREEQYNSTYRVVSVLTVLHQDWLNGKEYKCKVSNKALPAPIEKTISKAKGQPREPEVATFPPSRDELTKNQVTLVCLVTGFYPSDIAVEWESNGQPENNYKTDPPLLESDGSFALSSRLRVDKSRWQQGNVFSCSVMHEALHNHYTQKSLSLSPG",Average rel KD,[1],1.15 relative to reference
same,Relative KD R1,[1],1.17 relative to reference
same,Average rel KD,[2],0.98 relative to reference
same,Relative KD R1,[2],0.988 relative to reference
same,Average rel KD,[3],1.02 relative to reference
same,Relative KD R1,[3],1.02 relative to reference
same,Average rel KD,[4],1.09 relative to reference
same,Relative KD R1,[4],1.11 relative to reference
same,Average rel KD,[5],1 relative to reference
